B1: EGF: ligand of novel pathway (protein, UniProt P01133 23-1207, looked up)
Pro-epidermal growth factor: PQHWSCPEGTLAGNGNSTCVGPAPFLIFSHGNSIFRIDTEGTNYEQLVVDAGVSVIMDFHYNEKRIYWVDLERQLLQRVFLNGSRQERVCNIEKNVSGMAINWINEEVIWSNQQEGIITVTDMKGNNSHILLSALKYPANVAVDPVERFIFWSSEVAGSLYRADLDGVGVKALLETSEKITAVSLDVLDKRLFWIQYNREGSNSLICSCDYDGGSVHISKHPTQHNLFAMSLFGDRIFYSTWKMKTIWIANKHTGKDMVRINLHSSFVPLGELKVVHPLAQPKAEDDTWEPEQKLCKLRKGNCSSTVCGQDLQSHLCMCAEGYALSRDRKYCEDVNECAFWNHGCTLGCKNTPGSYYCTCPVGFVLLPDGKRCHQLVSCPRNVSECSHDCVLTSEGPLCFCPEGSVLERDGKTCSGCSSPDNGGCSQLCVPLSPVSWECDCFPGYDLQLDEKSCAASGPQPFLLFANSQDIRHMHFDGTDYGTLLSQQMGMVYALDHDPVENKIYFAHTALKWIERANMDGSQRERLIEEGVDVPEGLAVDWIGRRFYWTDRGKSLIGRSDLNGKRSKIITKENISQPRGIAVHPMAKRLFWTDTGINPRIESSSLQGLGRLVIASSDLIWPSGITIDFLTDKLYWCDAKQSVIEMANLDGSKRRRLTQNDVGHPFAVAVFEDYVWFSDWAMPSVMRVNKRTGKDRVRLQGSMLKPSSLVVVHPLAKPGADPCLYQNGGCEHICKKRLGTAWCSCREGFMKASDGKTCLALDGHQLLAGGEVDLKNQVTPLDILSKTRVSEDNITESQHMLVAEIMVSDQDDCAPVGCSMYARCISEGEDATCQCLKGFAGDGKLCSDIDECEMGVPVCPPASSKCINTEGGYVCRCSEGYQGDGIHCLDIDECQLGEHSCGENASCTNTEGGYTCMCAGRLSEPGLICPDSTPPPHLREDDHHYSVRNSDSECPLSHDGYCLHDGVCMYIEALDKYACNCVVGYIGERCQYRDLKWWELRHAGHGQQQKVIVVAVCVVVLVMLLLLSLWGAHYYRTQKLLSKNPKNPYEESSRDVRSRRPADTEDGMSSCPQPWFVVIKEHQDLKNGGQPVAGEDGQAADGSMQPTSWRQEPQLCGMGTEQGCWIPVSSDKGSCPQVMERSFHMPSYGTQTLEGGVEKPHSLLSANPLWQQRALDPPHQMELTQ
modifications: Pro-epidermal growth factor
notes: ligand of novel pathway
B2: IL-4: classic M2 stimulus (protein, UniProt P05112 25-153, looked up)
Interleukin-4: HKCDITLQEIIKTLNSLTEQKTLCTELTVTDIFAASKNTTEKETFCRAATVLRQFYSHHEKDTRCLGATAQQFHRHKQLIRFLKRLDRNLWGLAGLNSCPVKEANQSTLENFLERLKTIMREKYSKCSS
B3: IL10: classic M2 stimulus (protein, UniProt P22301 19-178, looked up)
Interleukin-10: SPGQGTQSENSCTHFPGNLPNMLRDLRDAFSRVKTFFQMKDQLDNLLLKESLLEDFKGYLGCQALSEMIQFYLEEVMPQAENQDPDIKAHVNSLGENLKTLRLRLRRCHRFLPCENKSKAVEQVKNAFNKLQEKGIYKAMSEFDIFINYIEAYMTMKIRN

What was measured:
hMDMs [1] = assay: RNA-seq transcriptional response of hMDMs (GSEA, GO enrichment); assay type: cell-based, human; conditions: hMDMs, 24 hrs, GSEA
Experimental: Duplicate hMDM samples were treated with 2 M2-activating and 6 M1-activating compounds as well as IL-4 and IFNγ for 24 hrs. Gene expression levels were measured by RNA-seq separately. GSEA preranked analysis was performed based on the whole genome gene list ranked on gene expression changes using a gene set of 49 transcriptional modules in response to 29 stimuli in hMDMs. bosut.: bosutinib; alster.: alsterpaullone; mocet.: mocetinostat; thios.: thiostrepton; niclo.: niclosamide; chlor.: chlorhexidine; fenb.: fenbendazole; fluvo.: fluvoxamine. […] Duplicate hMDM samples were stimulated with each ligand and analyzed by RNA-seq separately.
DEGs were identified by edgeR at P<0.05 with at least 2 fold-change.
RNAs were extracted with RNeasy MiniElute kit (Qiagen), converted into cDNA and sequenced using Next-Generation Sequencing (Illumina). […] Differential expression analysis was performed using the program edgeR at P<0.05 with a 2 fold-change. The gene expression level across different samples was normalized and quantified using the function of cpm. Differentially expressed genes were annotated using online functional enrichment analysis tool DAVID (http://david.ncifcrf.gov/). Gene set enrichment analysis were performed with GSEA with FDR q-value<0.05.
Fresh hMDMs were treated with compounds at the EC for 24 hours, followed by RNA-seq.

hMDMs [2] = assay: Flow cytometry of M1 markers (CD80, CD86) and M2 markers (CD206, CD163) in hMDMs; assay type: cell-based, human; conditions: 24 hrs
Experimental: FIGS. 7A-7B show morphology and phenotypes of activated macrophages. […] The resulting macrophages were polarized to M1 by IFNγ or M2 by IL4. Then, M1 macrophages were treated with M2-type compound bosutinib ([…]) for 24 hrs, and M2 macrophages were treated with M1-type compound thiostrepton ([…]) for 24 hrs. F-actin was stained and images were acquired by fluorescent microscopy with 60× objective. Cell nuclei are stained with DAPI. Representative data were shown from two independent experiments. […] Shown are the representative staining profiles from three independent experiments. The numbers show mean fluorescent intensity (MFI)+/−standard error of the mean (SEM) for n=3 samples per group.
FIGS. 9A-9C show comparison of the differentially expressed genes induced by selected compounds (FIG. 9A), ligands for novel pathways (FIG. 9B), and controls (IL-4 and IFNγ). […] Shown are the changes of the relative mean fluorescence intensity (MFI) to controls. 0.2 refers to 20% MFI increase.
B6 mice were purchased from the Jackson Laboratory and maintained in the animal facility at the Massachusetts Institute of Technology (MIT). NSG mice were purchased from the Jackson Laboratory and maintained under specific pathogen-free conditions in the animal facilities at MIT. […] The data were analyzed by FlowJo. […]

[3] = system: human monocyte-derived macrophages (hMDMs); assay: High throughput phenotypic screen of macrophage activation (cell shape, Z-score); assay type: cell-based; conditions: known M1-/M2-activating stimuli;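 note: phalloidin and DAPI stained hMDMs imaged by high-content microscopy, cell eccentricity compared with DMSO control by T-test, round morphology scored negative, elongated positive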
Experimental: The Z-score was calculated by T-test to measure the difference of cell morphology between treatment and control. Stimuli had negative Z-scores when induced cells to round morphology and positive scores when induced cells to elongated morphology. […] Equally mixed human monocytes isolated from fresh blood of 4 healthy donors were cultured in vitro with 50 ng/mL M-CSF for 7 days. hMDMs were trypsinized and plated on 384-well plates (5000 cells/well in 50 μL). Cells were recovered in 10 ng/mL M-CSF for 16 hrs and then treated with compounds for 24 hrs. Cells were washed, fixed and stained with Phalloidin and DAPI. The plates were scanned with a high-content microscope with six-fields per well to quantify the cell number and cell morphology. […] The cell eccentricity was calculated to measure the cell morphology. The Z-score was calculated by T-test to measure the difference in cell morphologies between each compound and DMSO control.
Cells were treated with a library of over 4000 individual compounds or drugs at the final concentration of 20 μM using the CyBi-Well simultaneous pipettor (CyBio). […] After 24 hr incubation, supernatants were removed using the microplate washer (Bioteck) and cells were fixed by adding 50 μL 16% paraformaldehyde (Thermo Scientific) with the dispenser for 20 minutes. Cells were then washed with 50 μL 1×PBS twice and incubated for 20 minutes with NucBlue and AF746 Phalloidin (Invitrogen) to stain nucleus and cytoskeleton. Cells were then washed with 50 μL 1×PBS twice and maintained in PBS for the image acquirement. Plates were read in the Opera Phenix high content screening system (PerkinElmer) to photograph cells using 20× objective in 2 fluorescent channels (Blue and FarRed). A total of 6 different fields in each well and an average of 1,000 cells were imaged per well. CellProfiler was used to identify each cell by overlapping signals from its nucleus and cytoskeleton, and calculate the eccentricity as the parameter to measure the cell morphology. The Z-score was calculated by T-test to measure the difference of cell morphology between each treatment and control. For each row of the 384-well plate, total 4 wells with first and last two columns treated with the same concentration of DMSO were combined as the control for the other 20 treatment wells in that row. In the meantime, classic M1 and M2 stimuli were added to generate the gold-standard Z-score cutoffs with M1 or M2 activation. Classic M1 stimuli include LPS (100 ng/mL), IFNγ (50 ng/mL, Peprotech), TNFα (50 ng/mL, Peprotech), or IFNγ plus TNFα. Classic M2 stimuli include IL-10 (10 ng/mL, Peprotech), IL-4 (10 ng/mL, Peprotech), or IL-13 (5 ng/mL, Peprotech).

| Molecule | gene expression of TPP modules (#30, #32) (hMDMs [1]) | gene expression of typical M1 modules (#7, #8) (hMDMs [1]) | expression of M1 markers CD80 and CD86 (hMDMs [2]) | expression of M2 markers CD206 and CD163 (hMDMs [2]) | cell shape induced [3] |
| --- | --- | --- | --- | --- | --- |
| B1 | down-regulated | up-regulated | – | – | – |
| B2 | – | – | suppressed | up-regulated | elongated cell shape |
| B3 | – | – | – | – | elongated cell shape |
